The values below come from patent US20160102367A1 (TRUSTEES OF COLUMBIA UNIVERSITY IN THE CITY OF NEW YORK, published 2016).

Common to all, as to test: streptavidin-biotin peptide pull down, anti-GST Western blot
One assay deals with T1, GST-SH2-FYN Leu174Arg (Homo sapiens (Human), UniProt P06241 148-231).
T1 construct: also called GST-FYN-SH2 L174R; not shown: The N-terminal GST tag and the pGEX4-T1 linker
As for the experimental part:
(§1) GST-tagged FYN SH2 domain proteins were purified by binding them to immobilized glutathione Sepharose beads (Thermo scientific) and eluting them with 50 mM reduced Glutathione, 50 mM Tris, pH 7.4, 150 mM NaCl, 5% glycerol, 5 mM β-mercaptoethanol. Protein expression and purity were assessed by Coomassie staining. Binding assay was performed with Pull-Down Biotinylated Protein-protein Interaction Kit (Thermo scientific) according to the manufacturer's instructions using an amino acid 527-537 FYN biotinylated peptide (biotin-[…])(SEQ ID NO: 1); an amino acid 527-537 pY531 FYN biotinylated peptide (biotin-TEPQpYQPGENL)(SEQ ID NO: 2) and an amino acid 527-537 […] FYN biotinylated peptide (biotin-[…])(SEQ ID NO: 3) (Anaspec Inc). Synthetic biotinylated peptides were incubated with purified GST-FYN SH2 domain, mutant FYN SH2 domain or GST alone for 1 h at 4° C. Interacting proteins were resolved on 10% SDS-polyacrylamide gel electrophoresis (SDS-PAGE) and transferred to a PVDF membrane and subjected to Western blot with an anti-GST antibody.
(§2) In addition, structure model analysis of FYN and FYN mutant proteins further supported this hypothesis. (See FIG. 4C which is a molecular ribbon representation of wild type FYN protein structure showing the positioning of the FYN SH2 domain and the C terminal Tyr531 phosphosite and FIG. 4D which illustrates structure modeling of FYN Tyr531His, FYN Arg176Cys and FYN Leu174Arg mutant proteins.) The interaction between GST-FYN-SH2 recombinant proteins and biotinylated C-terminal FYN peptides encompassing the position Tyr531 was analyzed. In these assays, wild type GST-FYN-SH2 was effectively pulled down with a Tyr531 phosphopeptide, but not with the corresponding unphosphorylated sequence or with a peptide containing a Tyr531His substitution. […]

The next assay addresses T2, GST-SH2-FYN Arg176Cys (Homo sapiens (Human), UniProt P06241 148-231).
T2 construct: also called GST-FYN-SH2 R176C; not shown: The N-terminal GST tag and the pGEX4-T1 linker
As for the experimental part:
as §1, §2

Assay [1] deals with T3, GST-FYN-SH2 (wild type FYN SH2 domain, codons 148-231, N-terminal GST tag) (UniProt P06241 148-231).
T3 construct: range 148-231; Expressed in E. coli Rosetta 2(DE3) and purified on glutathione Sepharose; also called GST-SH2-FYN; GST-FYN SH2 domain; not shown: N-terminal GST tag from the pGEX4-T1 vector
T3 sequence (P06241 148-231): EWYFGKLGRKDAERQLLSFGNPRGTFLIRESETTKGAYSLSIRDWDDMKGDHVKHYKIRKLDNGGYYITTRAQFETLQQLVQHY
The method, then: as §1, §2

Non-standard residues stand in square brackets, D forms with d. No end group written: not given here. *: point of attachment. Biotin = O=C1N[C@H]2[C@H](CS[C@H]2CCCCC(=O)*)N1; pY = N[C@@H](Cc1ccc(OP(=O)(O)O)cc1)C(=O)O

T2 sequence (P06241 148-231 R176C limits assumed): as the sequence (P06241 148-231) above, with R29C counted along it
T1 sequence (P06241 148-231 L174R limits assumed): as the sequence (P06241 148-231) above, with L27R counted along it

B1: amino acid 527-537 pY531 FYN biotinylated peptide (biotin-TEPQpYQPGENL) (peptide)
peptide: Biotin-TEPQ[pY]QPGENL
notes: Synthetic peptide (Anaspec Inc); also called Tyr531 phosphopeptide; P-Tyr531 FYN C-terminal peptide
For B1, the binding result with GST-SH2-FYN Leu174Arg and with GST-SH2-FYN Arg176Cys was “no binding” each time.

B2: amino acid 527-537 Y51H FYN biotinylated peptide (biotin-TEPQHQPGENL) (peptide)
peptide: Biotin-TEPQHQPGENL
notes: also called mutant Tyr531His FYN C-terminal peptide
B2: in assay [1], the binding result is listed as “no binding”.
